Assay results taken from US20120124686.

Biological target: T1, phiC31 integrase (phiC31o, mammalian codon-optimized) (Streptomyces phage phiC31) (UniProt Q9T221)
T1 sequence: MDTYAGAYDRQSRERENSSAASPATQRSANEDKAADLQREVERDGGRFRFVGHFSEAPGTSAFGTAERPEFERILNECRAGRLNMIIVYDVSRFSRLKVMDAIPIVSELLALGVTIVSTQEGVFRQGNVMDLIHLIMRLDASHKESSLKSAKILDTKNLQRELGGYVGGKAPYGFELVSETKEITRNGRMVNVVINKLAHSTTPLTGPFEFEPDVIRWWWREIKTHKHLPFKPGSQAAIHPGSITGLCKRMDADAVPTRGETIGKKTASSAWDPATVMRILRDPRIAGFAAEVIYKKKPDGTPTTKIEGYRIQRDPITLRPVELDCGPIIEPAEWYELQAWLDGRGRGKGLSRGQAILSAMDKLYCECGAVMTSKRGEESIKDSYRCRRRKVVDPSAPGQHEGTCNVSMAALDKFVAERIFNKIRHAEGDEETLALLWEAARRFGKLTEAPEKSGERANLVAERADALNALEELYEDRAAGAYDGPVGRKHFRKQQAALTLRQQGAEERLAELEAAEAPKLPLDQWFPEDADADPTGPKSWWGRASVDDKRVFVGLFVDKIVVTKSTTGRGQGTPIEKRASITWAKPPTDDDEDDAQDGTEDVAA
Experiment: cell_activity

Substance	activity (% of F0 with site-specific integration) (attB plasmid pattB-pCA-GFP into H11P3NVphi, 10/64, 0/32 without integrase mRNA)	activity (% of F0 with site-specific integration) (H11P(NVphi), mixed background, pooled 8/102, partner attB, mouse zygote injection)
full-length phiC31 attB (pTA-attB)	15.6	
full-length phiC31 attP (pTA-attP)		7.8
